Consider 1 molecule from PMC3419727, “Identifying the Hotspots on the Top Faces of WD40-Repeat Proteins from Their Primary Sequences by β-Bulges and DHSW Tetrads” (PLoS ONE, 2012).

Common to all, as to test: ITC; Fep1 (~1.4 mM) injected, 2 µl each time, into Tup11 WT or mutant (~0.2 mM); 25°C; 1×PBS pH 7.4, 150 mM NaCl; iTC200 (MicroCal); Fep1 into buffer subtracted as background
What all share (details): both partners purified
For orientation: In ITC the heat of successive injections is recorded.

In experiment [1] the target is T1, S. japonicus Tup11 WD40 domain (301–630) Cys337Ala (S. japonicus, UniProt B6JV84 301-630, Cys337 substituted by Ala).
T1 construct: Tup11, S. japonicus, WD40 domain, amino acids 301-630; also called Cyc337
T1 sequence (looked up): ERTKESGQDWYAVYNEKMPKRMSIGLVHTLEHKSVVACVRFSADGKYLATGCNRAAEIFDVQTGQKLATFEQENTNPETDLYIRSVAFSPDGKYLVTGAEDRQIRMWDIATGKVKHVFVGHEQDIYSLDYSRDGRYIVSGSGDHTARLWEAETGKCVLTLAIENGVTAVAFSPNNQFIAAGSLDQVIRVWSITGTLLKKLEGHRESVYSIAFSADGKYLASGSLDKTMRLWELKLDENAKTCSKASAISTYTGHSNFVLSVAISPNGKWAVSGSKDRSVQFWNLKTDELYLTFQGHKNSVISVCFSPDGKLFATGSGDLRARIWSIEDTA

Experiment [2] has as its target T2, S. japonicus Tup11 WD40 domain (301–630) Tyr426Ala (S. japonicus, UniProt B6JV84 301-630, Tyr426 substituted by Ala).
T2 construct: Tup11, S. japonicus, WD40 domain, amino acids 301-630
T2 sequence (looked up): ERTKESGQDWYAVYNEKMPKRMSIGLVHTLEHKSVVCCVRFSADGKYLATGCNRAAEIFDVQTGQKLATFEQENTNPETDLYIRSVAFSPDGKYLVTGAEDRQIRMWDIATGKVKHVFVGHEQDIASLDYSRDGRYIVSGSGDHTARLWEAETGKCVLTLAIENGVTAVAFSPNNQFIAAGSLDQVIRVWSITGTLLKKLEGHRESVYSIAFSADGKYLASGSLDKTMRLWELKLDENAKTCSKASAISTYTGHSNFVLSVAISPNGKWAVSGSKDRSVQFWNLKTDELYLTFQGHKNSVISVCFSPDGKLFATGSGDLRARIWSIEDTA

The target of experiment [3] is T3, S. japonicus Tup11 WD40 domain (301–630) Leu559Ala (S. japonicus, UniProt B6JV84 301-630, Leu559Ala).
T3 construct: Tup11, S. japonicus, WD40 domain, amino acids 301-630
T3 sequence (looked up): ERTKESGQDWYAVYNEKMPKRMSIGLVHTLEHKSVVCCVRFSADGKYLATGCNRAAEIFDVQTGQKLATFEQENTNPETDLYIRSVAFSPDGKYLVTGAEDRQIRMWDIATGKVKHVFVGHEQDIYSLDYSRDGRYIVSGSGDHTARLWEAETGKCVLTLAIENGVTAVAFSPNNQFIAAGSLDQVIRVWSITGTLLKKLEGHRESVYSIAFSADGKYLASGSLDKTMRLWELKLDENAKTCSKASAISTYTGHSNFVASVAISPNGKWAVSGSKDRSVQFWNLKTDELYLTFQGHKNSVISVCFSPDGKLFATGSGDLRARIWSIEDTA

The target of experiment [4] is T4, S. japonicus Tup11 WD40 domain (301–630) Ile601Ala (S. japonicus, UniProt B6JV84 301-630, Ile601Ala).
T4 construct: Tup11, S. japonicus, WD40 domain, amino acids 301-630
T4 sequence (looked up): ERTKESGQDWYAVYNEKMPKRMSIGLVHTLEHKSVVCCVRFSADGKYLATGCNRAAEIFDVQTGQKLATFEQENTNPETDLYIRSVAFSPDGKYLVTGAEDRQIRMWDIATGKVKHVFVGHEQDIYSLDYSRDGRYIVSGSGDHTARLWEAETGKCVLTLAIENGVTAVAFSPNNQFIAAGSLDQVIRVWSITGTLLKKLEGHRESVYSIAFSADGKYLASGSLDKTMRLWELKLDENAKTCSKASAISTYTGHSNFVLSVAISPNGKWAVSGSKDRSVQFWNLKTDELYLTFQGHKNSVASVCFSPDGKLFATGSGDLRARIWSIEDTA

Experiment [5] deals with T5, S. japonicus Tup11 WD40 domain (301–630) Thr467Ala (S. japonicus, UniProt B6JV84 301-630, Thr467 substituted by Ala).
T5 construct: Tup11, S. japonicus, WD40 domain, amino acids 301-630
T5 sequence (looked up): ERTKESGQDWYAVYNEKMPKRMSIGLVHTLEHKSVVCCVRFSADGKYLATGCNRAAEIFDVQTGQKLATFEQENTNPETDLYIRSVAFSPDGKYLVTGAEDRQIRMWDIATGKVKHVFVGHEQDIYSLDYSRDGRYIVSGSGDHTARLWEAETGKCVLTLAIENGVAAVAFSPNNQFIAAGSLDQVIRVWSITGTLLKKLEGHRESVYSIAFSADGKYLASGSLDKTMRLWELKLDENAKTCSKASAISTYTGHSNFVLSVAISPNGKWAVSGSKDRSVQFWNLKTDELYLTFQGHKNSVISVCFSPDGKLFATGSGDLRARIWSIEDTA

B1: C-terminal region of S. pombe Fep1 (amino acids 319–564) (domain or fragment, UniProt Q10134 319-564, looked up)
chain: AAGEPDNNGKVYYSYGPTQEQSILPLPENKHEGLPPYQNEYVPNGIRANQVVYPGQLVAVGNDSSKQLSESTTSNTDNNGVATANQSNPLGMKFHLPPILPVGESVCLPPRTSAKPRIAEGIASLLNPEEPPSNSDKQPSMSNGPKSEVSPSQSQQAPLIQSSTSPVSLQFPPEVQGSNVDKRNYALNVLSQLRSQHDLMIQELHNLNQHIQQIDEWLRSSDNENMASEHIKSSTPAVVASGALQT
notes: Fep1, GATA-factor, S. pombe, C-terminal region, amino acids 319-564
On to B1, for which the binding result in experiment [1], in experiment [2], in experiment [4] and in experiment [5] was “binds” throughout. For the same molecule, the “reduction of binding free energy against wild type” value in experiment [3] was around 1 kcal/mol.
